Source: patent CN109776681A

Biological target: 人IgG蛋白 (human)
Test: BLI (Octet RED96), human IgG loaded on the sensor, nanobody at 50 μg/mL in solution

Kd: 3.69 nM
koff: 0.00157 s⁻¹
kon: 426000 M⁻¹ s⁻¹
B1: 抗免疫球蛋白G的Fc段的纳米抗体 (编号为I4的阳性克隆) (VHH)
VHH: QVQLVESGGGLVQAGGSLRLSCAASGGTFYSYAMGWFRQAPGKKREFVAAIRWTSGITYYADSVKDRFTISRDNAKNTVYLQMTGLKPEDTAVYYCALGPDNSDSYDYWGQGTQVTVSS
